Consider two proteins from article PMC5592240, “Succinyl-CoA:Mesaconate CoA-Transferase and Mesaconyl-CoA Hydratase, Enzymes of the Methylaspartate Cycle in Haloarcula hispanica” (Frontiers in Microbiology, 2017).

Substrate in data set [1]: C/C(=C\C(=O)O)C(=O)SCCNC(=O)CCNC(=O)[C@H](O)C(C)(C)COP(=O)(O)OP(=O)(O)OC[C@H]1O[C@@H](n2cnc3c(N)ncnc32)[C@H](O)[C@@H]1OP(=O)(O)O
In words: UPLC of CoA esters (hydration to beta-methylmalyl-CoA). It counts as biochemical, Haloarcula hispanica. To be noted: 100 mM Tris/HCl pH 7.8, 3 M KCl, 5 mM MgCl2, 37°C, forward direction (hydration), apparent. The text has this: UPLC of CoA esters (hydration to beta-methylmalyl-CoA) on mesaconyl-CoA hydratase (Mch, Hah_1340)

Substrate in data set [2]: C/C(=C\C(=O)SCCNC(=O)CCNC(=O)[C@H](O)C(C)(C)COP(=O)(O)OP(=O)(O)OC[C@H]1O[C@@H](n2cnc3c(N)ncnc32)[C@H](O)[C@@H]1OP(=O)(O)O)C(=O)O
In words: UPLC of CoA esters (hydration to (S)-citramalyl-CoA). It is filed as biochemical, Haloarcula hispanica. To be noted: 100 mM Tris/HCl pH 7.8, 3 M KCl, 5 mM MgCl2, 37°C, forward direction (hydration), apparent. The text has this:
UPLC of CoA esters (hydration to (S)-citramalyl-CoA) on mesaconyl-CoA hydratase (Mch, Hah_1340)

Substrate in data set [3]: C[C@H](C(=O)SCCNC(=O)CCNC(=O)[C@H](O)C(C)(C)COP(=O)(O)OP(=O)(O)OC[C@H]1O[C@@H](n2cnc3c(N)ncnc32)[C@H](O)[C@@H]1OP(=O)(O)O)[C@@H](O)C(=O)O
In words: UPLC of CoA esters (dehydration to mesaconyl-C1-CoA). It is filed as biochemical, Haloarcula hispanica. To be noted: 100 mM Tris/HCl pH 7.8, 3 M KCl, 5 mM MgCl2, 37°C, reverse direction (dehydration), apparent. The text has this: UPLC of CoA esters (dehydration to mesaconyl-C1-CoA) on mesaconyl-CoA hydratase (Mch, Hah_1340)

Substrate in data set [4]: CC(C)(COP(=O)(O)OP(=O)(O)OC[C@H]1O[C@@H](n2cnc3c(N)ncnc32)[C@H](O)[C@@H]1OP(=O)(O)O)[C@@H](O)C(=O)NCCC(=O)NCCSC(=O)C[C@H](O)C(=O)O
In words: UPLC of CoA esters (dehydration). It is filed as biochemical, Haloarcula hispanica. To be noted: 100 mM Tris/HCl pH 7.8, 3 M KCl, 5 mM MgCl2, 37°C, apparent. The source says:
(§1) UPLC of CoA esters (dehydration) on mesaconyl-CoA hydratase (Mch, Hah_1340)

Substrate in data set [5]: CC(C)(COP(=O)(O)OP(=O)(O)OC[C@H]1O[C@@H](n2cnc3c(N)ncnc32)[C@H](O)[C@@H]1OP(=O)(O)O)[C@@H](O)C(=O)NCCC(=O)NCCSC(=O)C[C@](C)(O)C(=O)O
In words: UPLC of CoA esters (dehydration). To be noted: 100 mM Tris/HCl pH 7.8, 3 M KCl, 5 mM MgCl2, 37°C, apparent. It counts as biochemical, Haloarcula hispanica.
Description: as §1

Data set [6] concerns the molecule itself. In words: SEC; analytical gel filtration, 24-ml Superdex 200 Increase 10/300 GL, 50 mM Tris/HCl pH 8.0 with 2 M KCl, 0.75 ml/min; calibrated with alcohol dehydrogenase (150 kDa), bovine serum albumin (66 kDa), carbonic anhydrase (29 kDa), cytochrome c (12.4 kDa); native mass against the monomer's mass.
Substrate in data set [7]: C=CC(=O)O
In words: UPLC of CoA-ester formation. To be noted: CoA acceptor, 1 mM succinyl-CoA, 100 mM Tris/HCl pH 7.8, 3 M KCl, 5 mM MgCl2, 37°C, apparent. It counts as biochemical, Haloarcula hispanica. The text has this: (§2) UPLC of CoA-ester formation on succinyl-CoA:mesaconate CoA-transferase (Mct, Hah_1336)

Substrate in data set [8]: CC(CC(=O)O)C(=O)O
In words: UPLC of CoA-ester formation. It counts as biochemical, Haloarcula hispanica. To be noted: CoA acceptor, 1 mM succinyl-CoA, 100 mM Tris/HCl pH 7.8, 3 M KCl, 5 mM MgCl2, 37°C, apparent.
Description: as §2

Substrate in data set [9]: O=C(O)CCCC(=O)O
In words: UPLC of CoA-ester formation. It is filed as biochemical, Haloarcula hispanica. To be noted: CoA acceptor, 1 mM succinyl-CoA, 100 mM Tris/HCl pH 7.8, 3 M KCl, 5 mM MgCl2, 37°C, apparent.
Description: as §2

Substrate in data set [10]: C/C(=C\C(=O)O)C(=O)O
In words: UPLC of mesaconyl-CoA formation. It is filed as biochemical, Haloarcula hispanica. To be noted: CoA acceptor, 1 mM succinyl-CoA, 100 mM Tris/HCl pH 7.8, 3 M KCl, 5 mM MgCl2, 37°C, apparent. The source says:
(§3) UPLC of mesaconyl-CoA formation on succinyl-CoA:mesaconate CoA-transferase (Mct, Hah_1336)

Substrate in data set [11]: CC(C)(COP(=O)(O)OP(=O)(O)OC[C@H]1O[C@@H](n2cnc3c(N)ncnc32)[C@H](O)[C@@H]1OP(=O)(O)O)[C@@H](O)C(=O)NCCC(=O)NCCSC(=O)CCC(=O)O
In words: UPLC of mesaconyl-CoA formation. It is filed as biochemical, Haloarcula hispanica. To be noted: CoA donor, 10 mM mesaconate, 100 mM Tris/HCl pH 7.8, 3 M KCl, 5 mM MgCl2, 37°C, apparent.
Description: as §3

B1: mesaconyl-CoA hydratase from Haloarcula hispanica (enzyme, UniProt G0HQ35 1-358, looked up)
chain: MTDWTDPDALDLSDGETFDSLLDRADTREKGHFFEFFAEGDELAHDPGLRLSHHGSEQWMGQTLNHDPAYWRADTAQERGFEERPVHPDYLLACVMGITVEDLSEKGGYFLGRDDVEFHQPATAGTPLSVTSTVVDTRTSSSRPKYGIVTWETEGRDRETGETLVSYRRTNMIPRREPAATDGGAVGEQDEGGPAMPDTLLSPDGERFGDFQAALDTAREENAAVAYRHERGRTMDDQLVAGLPLSTLNTARQHHNRDEMADSPSGDIVAYGDVTRSIALAHARSDEATYREQRFADERFHDFVTLGDTVYGFTRVLDCDPDAGPERAGAVTFEHVAFNQEQTPVYSGRRTAHIQRHQ
notes: mesaconyl-CoA hydratase (Mch, Hah_1340) of Haloarcula hispanica; the 1.07-kb mch gene (358 amino acids, predicted molecular mass 40 kDa) was cloned into pTA963; No removal of the tag is described; also called Mch; Hah_1340; source: Haloferax volcanii H1209 (pTA963), purified (Ni-NTA, gel filtration); not shown: His6, N-terminal, kept
Take B1: the Km in data set [1] is listed as 1.0 ± 0.1 mM; in [2], 0.18 ± 0.01 mM; in data set [3], 0.35 ± 0.05 mM; in data set [4] it was 0.32 ± 0.05 mM; in data set [5], 2.6 ± 0.3 mM. The Vmax in [1] turned out to be 20.7 µmol/min/mg; in data set [2] it was 1.12 µmol/min/mg; in data set [3], 266 µmol/min/mg; in [4], 3.6 µmol/min/mg; in [5], 1.6 µmol/min/mg. Also, the catalytic efficiency (kcat/Km) worked out at 6900 M⁻¹ s⁻¹ in data set [1]; 2000 M⁻¹ s⁻¹ in data set [2]; 254000 M⁻¹ s⁻¹ in [3]; 3800 M⁻¹ s⁻¹ in data set [4]; 200 M⁻¹ s⁻¹ in [5]. Further, the “stoichiometry N” value in [6] is 2.

B2: succinyl-CoA:mesaconate CoA-transferase from Haloarcula hispanica (enzyme, UniProt G0HQ31 1-396, looked up)
chain: MGALDDLRVLDLTQVLAGPYCTMLLADMGADVVKVERPGGDLIRSNPPFVSDGDEEAYGGYFQSVNRGKRSLELDLGTDEDREAFLSLVERADVVVENFKAGTMEKFDCGYETLREHNPDLIYSSIRGFGDPRTGETHRQGQPSFDLIAQALGGVMEITGQSDGPPTKVGPGVGDLFTAVLNAVGILAAVHHRERTGEGQYVDTAMYDSMVSLCERTVYQYSCDGESPTRQGNSHPTLFPYDSFEAADGHVVIAAFADGHWETLCEAMERPDLAADYPDAGSRIANRESLRREIADWTATIDSETLLDLLEGRVPAAPVQNTADIFDDPHIHDREMLTDVDQPGADEQITIAGSPIKMTETMPSPGGRAPLLDEHRAELLDEAGVGTGTNRVESDD
notes: succinyl-CoA:mesaconate CoA-transferase (Mct, Hah_1336) of Haloarcula hispanica; the 1.19-kb mct gene (396 amino acids, predicted molecular mass 43 kDa) was cloned into pTA963; No removal of the tag is described; also called Mct; Hah_1336; source: Haloferax volcanii H1209 (pTA963), purified (Ni-NTA, gel filtration); not shown: His6, N-terminal, kept
Regarding B2, the Km turned out to be 39.3 ± 4.6 mM in data set [7]; 0.6 ± 0.1 mM in data set [8]; 40.9 ± 3.9 mM in data set [9]; 1.3 ± 0.2 mM in data set [10]; 2.8 ± 0.2 mM in data set [11]. Further, the Vmax is 6.2 µmol/min/mg in [7]; 11 µmol/min/mg in data set [8]; 18.1 µmol/min/mg in data set [9]; 17 µmol/min/mg in [10]; 69.2 µmol/min/mg in data set [11]. The specificity constant (kcat/Km) in [7] came to 120 M⁻¹ s⁻¹; in data set [8], 12400 M⁻¹ s⁻¹; in [9] it was 320 M⁻¹ s⁻¹; in [10], 9800 M⁻¹ s⁻¹; in data set [11], 17800 M⁻¹ s⁻¹. In data set [10], the kcat amounted to 12.2 s⁻¹. Besides, in data set [6], the “stoichiometry N” value was 2.

In general, Km refers to the concentration of substrate that gives half-maximal velocity. The Vmax is the rate approached at saturating substrate. Broadly, the kcat/Km is the turnover number divided by the Michaelis constant. As usually defined, the stoichiometry N is a count of units in the complex or per binding partner. As a reminder, the kcat is the maximal rate divided by the concentration of active sites.
